B2: CCT4, subunit of bovine TRiC/CCT (bTRiC) (natural protein, Bos taurus, UniProt Q2T9X2 1-542, looked up)
chain: MPENVAPRTGPPAGAAGAAGGRGKSAYQDRDKPAQIRFSNISAAKAVADAIRTSLGPKGMDKMIQDGKGDVTITNDGATILKQMQVLHPAARMLVELSKAQDIEAGDGTTSVVIIAGSLLDSCTKLLQKGIHPTIISESFQKALEKGIEILTDMSRPEELSDRETLLNSAATSLNSKVVSQYSSLLSPMSVDAVMKVIDPATATSVDLRDIKIVKKLGGTIDDCELVEGLVLTQKVANSGITRVEKAKIGLIQFCLSAPKTDMDNQIVVSDYVQMDRVLREERAYILNLVKQIKKTGCNVLLIQKSILRDALSDLALHFLNKMKIMVVKDIEREDIEFICKTIGTKPVAHVDQFTADMLGSAELAEEVSLNGSGKLIKITGCASPGKTVTIVVRGSNKLVIEEAERSIHDALCVIRCLVKKRALIAGGGAPEIELALRLTEYSRTLSGMESYCIRAFADAMEVIPSTLAENAGLNPISTVTELRNRHAQGEKTTGINVRKGGISNILEEQVVQPLLVSVSALTLATETVRSILKIDDVVNTR

What all share (assay): cross-linking
Test [1] concerns the target CCT4, subunit of yeast TRiC/CCT (yTRiC) (Saccharomyces cerevisiae, UniProt P39078 1-528).
Test [2] has as its target CCT1, subunit of bovine TRiC/CCT (bTRiC) (Bos taurus, UniProt Q32L40 1-556).
In test [3] the target is T1, CCT8, subunit of bovine TRiC/CCT (bTRiC) (Bos taurus, UniProt Q3ZCI9 1-548).
T1 sequence (looked up): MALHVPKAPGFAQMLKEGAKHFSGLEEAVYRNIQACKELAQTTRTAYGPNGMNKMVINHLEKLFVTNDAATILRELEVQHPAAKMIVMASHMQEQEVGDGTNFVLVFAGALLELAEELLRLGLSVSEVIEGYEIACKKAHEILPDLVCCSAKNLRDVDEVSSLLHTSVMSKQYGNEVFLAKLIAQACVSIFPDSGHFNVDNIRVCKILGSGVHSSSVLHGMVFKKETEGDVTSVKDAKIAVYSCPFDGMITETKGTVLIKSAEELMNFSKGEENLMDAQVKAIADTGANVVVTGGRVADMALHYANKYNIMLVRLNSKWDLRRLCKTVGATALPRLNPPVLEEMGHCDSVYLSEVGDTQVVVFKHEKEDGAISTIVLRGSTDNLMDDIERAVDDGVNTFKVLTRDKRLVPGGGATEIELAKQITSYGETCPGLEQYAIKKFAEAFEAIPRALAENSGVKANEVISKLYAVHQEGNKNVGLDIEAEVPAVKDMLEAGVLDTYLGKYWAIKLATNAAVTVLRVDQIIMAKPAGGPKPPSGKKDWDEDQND

Test [4] concerns the target B2.

These results are taken from publication PMC3350567 (Structure(London, England:1993), 2012).

Chain of CCT1, subunit of bovine TRiC/CCT (bTRiC) (Q32L40 whole entry): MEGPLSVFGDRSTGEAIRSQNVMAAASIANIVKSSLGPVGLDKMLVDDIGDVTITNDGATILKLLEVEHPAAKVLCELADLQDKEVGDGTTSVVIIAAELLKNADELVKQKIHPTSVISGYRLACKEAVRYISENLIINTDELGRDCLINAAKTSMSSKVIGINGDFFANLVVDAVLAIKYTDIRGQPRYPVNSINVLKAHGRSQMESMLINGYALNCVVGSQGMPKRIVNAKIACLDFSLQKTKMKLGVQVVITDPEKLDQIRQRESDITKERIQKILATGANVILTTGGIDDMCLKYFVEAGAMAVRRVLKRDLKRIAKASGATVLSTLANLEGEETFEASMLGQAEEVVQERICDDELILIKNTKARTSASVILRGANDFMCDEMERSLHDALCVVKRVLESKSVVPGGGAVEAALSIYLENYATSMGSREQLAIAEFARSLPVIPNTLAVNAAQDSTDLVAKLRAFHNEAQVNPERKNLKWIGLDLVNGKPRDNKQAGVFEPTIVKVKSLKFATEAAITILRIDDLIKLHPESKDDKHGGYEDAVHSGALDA
Chain of CCT4, subunit of yeast TRiC/CCT (yTRiC) (P39078 whole entry): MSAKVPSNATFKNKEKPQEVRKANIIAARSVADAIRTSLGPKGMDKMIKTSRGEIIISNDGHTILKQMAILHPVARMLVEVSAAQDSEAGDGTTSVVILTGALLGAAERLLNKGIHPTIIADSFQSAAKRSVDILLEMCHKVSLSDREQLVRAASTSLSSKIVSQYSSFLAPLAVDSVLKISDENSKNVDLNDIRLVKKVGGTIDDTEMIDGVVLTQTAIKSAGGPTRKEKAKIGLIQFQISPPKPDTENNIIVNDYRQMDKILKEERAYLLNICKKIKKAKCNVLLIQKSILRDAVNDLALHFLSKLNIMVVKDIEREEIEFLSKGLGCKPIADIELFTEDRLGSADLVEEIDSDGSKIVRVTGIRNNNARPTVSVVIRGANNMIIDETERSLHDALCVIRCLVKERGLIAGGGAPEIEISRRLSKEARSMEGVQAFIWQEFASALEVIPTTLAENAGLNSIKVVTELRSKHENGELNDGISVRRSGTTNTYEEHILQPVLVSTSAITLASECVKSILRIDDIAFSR

B1: CCT2, subunit of yeast TRiC/CCT (yTRiC) (natural protein, Saccharomyces cerevisiae, UniProt P39076 1-527, looked up)
chain: MSVQIFGDQVTEERAENARLSAFVGAIAVGDLVKSTLGPKGMDKLLQSASSNTCMVTNDGATILKSIPLDNPAAKVLVNISKVQDDEVGDGTTSVTVLSAELLREAEKLIDQSKIHPQTIIEGYRLASAAALDALTKAAVDNSHDKTMFREDLIHIAKTTLSSKILSQDKDHFAELATNAILRLKGSTNLEHIQIIKILGGKLSDSFLDEGFILAKKFGNNQPKRIENAKILIANTTLDTDKVKIFGTKFKVDSTAKLAQLEKAEREKMKNKIAKISKFGINTFINRQLIYDYPEQLFTDLGINSIEHADFEGVERLALVTGGEVVSTFDEPSKCKLGECDVIEEIMLGEQPFLKFSGCKAGEACTIVLRGATDQTLDEAERSLHDALSVLSQTTKETRTVLGGGCAEMVMSKAVDTEAQNIDGKKSLAVEAFARALRQLPTILADNAGFDSSELVSKLRSSIYNGISTSGLDLNNGTIADMRQLGIVESYKLKRAVVSSASEAAEVLLRVDNIIRARPRTANRQHM
As to B1, in test [1], the binding result is given as “binds”.
As to B2, the binding result in test [2] is “binds”.

B3: CCT7, subunit of bovine TRiC/CCT (bTRiC) (natural protein, Bos taurus, UniProt Q2NKZ1 1-543, looked up)
chain: MMPTPVILLKEGTDSSQGIPQLVSNISACQVIAEAVRTTLGPRGMDKLIVDGRGKATISNDGATILKLLDVVHPAAKTLVDIAKSQDAEVGDGTTSVTLLAAEFLKQVKPYVEEGLHPQIIIRAFRTATQLAVNKIKEIAVTVKKEDKVEQRKLLEKCAMTALSSKLISQQKAFFAKMVVDAVMMLDDLLQLKMIGIKKVQGGALEESQLVAGVAFKKTFSYAGFEMQPKKYHNPMIALLNVELELKAEKDNAEIRVHTVEDYQAIVDAEWNILYDKLEKIHHSGAKVVLSKLPIGDVATQYFADRDMFCAGRVPEEDLKRTMMACGGSIQTSVNALSSDVLGRCQVFEETQIGGERYNFFTGCPKAKTCTIILRGGAEQFMEETERSLHDAIMIVRRAIKNDSVVAGGGAIEMELSKYLRDYSRTIPGKQQLLIGAYAKALEIIPRQLCDNAGFDATNILNKLRARHAQGGMWYGVDINTEDIADNFEAFVWEPAMVRINALTAASEAACLIVSVDETIKNPRSTVDASPAAGRGRGRGRLH
For the molecule B3, in test [3], the binding result is recorded as “binds”.

B4: CCT2, subunit of bovine TRiC/CCT (bTRiC) (natural protein, Bos taurus, UniProt Q3ZBH0 1-535, looked up)
chain: MASLSLAPVNIFKAGADEERAETARLSSFIGAIAIGDLVKSTLGPKGMDKILLSSGRDASLMVTNDGATILKNIGVDNPAAKVLVDMSRVQDDEVGDGTTSVTVLAAELLREAESLIAKKIHPQTIIAGWREATKAARQALLNSAVDHGSDEVKFRQDLMNIAGTTLSSKLLTHHKDHFTKLAVEAVLRLKGSGNLEAIHVIKKLGGSLADSYLDEGFLLDKKIGVNQPKRIENAKILIANTGMDTDKIKIFGSRVRVDSTAKVAEIEHAEKEKMKEKVERILKHGINCFINRQLIYNYPEQLFGAAGVMAIEHADFVGVERLALVTGGEIASTFDHPELVKLGSCKLIEEVMIGEDKLIHFSGVALGEACTIVLRGATQQILDEAERSLHDALCVLAQTVKDSRTVYGGGCSEMLMAHAVTQLASRTPGKEAVAMESYAKALRMLPTIIADNAGYDSADLVAQLRAAHSEGKTTAGLDMKEGTIGDMSVLGITESFQVKRQVLLSAAEAAEVILRVDNIIKAAPRKRVPDHHPC
For B4, the binding result in test [4] is recorded as “binds”.

B5: CCT3, subunit of bovine TRiC/CCT (bTRiC) (natural protein, Bos taurus, UniProt Q3T0K2 1-545, looked up)
chain: MMGHRPVLVLSQNTKRESGRKVQSGNINAAKTIADIIRTCLGPKSMMKMLLDPMGGIVMTNDGNAILREIQVQHPAAKSMIEISRTQDEEVGDGTTSVIILAGEMLSVAEHFLEQQMHPTVVISAYRKALDDMISTLKKISIPVDTSNRDTMLNIINSSITTKVISRWSSLACNIALDAVKTVQFEENGRKEIDIKKYARVEKIPGGIIEDSCVLRGVMINKDVTHPRMRRYIKNPRIVLLDSSLEYKKGESQTDIEITREEDFTRILQMEEEYIQQLCEDIIQLKPDVVITEKGISDLAQHYLMRANITAIRRVRKTDNNRIARACGARIVSRPEELREEDVGTGAGLLEIKKIGDEYFTFITECKDPKACTILLRGASKEILSEVERNLQDAMQVCRNVLLDPQLVPGGGASEMAVAHALTEKSKAMTGVEQWPYRAVAQALEVIPRTLIQNCGASTIRLLTSLRAKHTQENCETWGVNGETGTLVDMKELGIWEPLAVKLQTYKTAVETAVLLLRIDDIVSGHKKKGDDQSRQGGAPDAGQE
B5: the binding result in test [2] is listed as “binds”.
